Assay results taken from PMC9536601.

Assays:
[1] = molecular target: chimeric hexon of Ad5:H1.1 (Ad5 vector, hexon residues 112-593 from Ad1 hexon), on the virion (human adenovirus type 5 | human adenovirus type 1) (UniProt P04133); experiment: SPR; Biacore T200; about 300 to 5,000 RU of Ad virions immobilised on a CM5 chip, coagulation factors flowed over at four concentrations, 50 uL/min; 10 mM HEPES, 150 mM NaCl, 1 mM CaCl2, 0.5 mM MgCl2, 0.1% BSA, 0.05% polysorbate 20, pH 7.4; global fit to a 1:1 kinetic interaction model, double referencing
[2] = molecular target: chimeric hexon of the Ad5 vector Ad5:H1.1 (Ad5 hexon with residues 112-593 from Ad1 hexon, on virions) (human adenovirus 5 | human adenovirus 1) (UniProt P04133); experiment: SPR; Biacore T200; about 300 to 5,000 RU of Ad virions immobilised on a CM5 chip, coagulation factors flowed over at four concentrations, 50 uL/min; running buffer 10 mM HEPES, 150 mM NaCl, 1 mM CaCl2, 0.5 mM MgCl2, 0.1% BSA, 0.05% polysorbate 20, pH 7.4; regeneration with 3 mM EDTA; global fit to a 1:1 kinetic interaction model, double referencing
[3] = molecular target: chimeric hexon of the Ad5 vector Ad5:H1.2 (Ad1 hexon section with HVR7 mutations, on virions) (human adenovirus 5 | human adenovirus 1) (UniProt P04133); experiment: as above
[4] = molecular target: chimeric hexon of the Ad5 vector Ad5:H57.1 (Ad5 hexon with residues 112-593 from Ad57 hexon, on virions) (human adenovirus 5 | human adenovirus 57) (UniProt P04133); experiment: as above
[5] = molecular target: chimeric hexon of the Ad5 vector Ad5:H6.1 (Ad5 hexon with residues 112-593 from Ad6 hexon, on virions) (human adenovirus 5 | human adenovirus 6) (UniProt P04133); experiment: as above
[6] = molecular target: hexon of the Ad5 vector Ad5.10 (Ad5 hexon with HVR1 of Ad6 hexon, on virions) (human adenovirus 5) (UniProt P04133); experiment: as above
[7] = molecular target: hexon of the Ad5 vector Ad5.4 (HVR7 mutant, on virions) (human adenovirus 5) (UniProt P04133); experiment: as above
[8] = molecular target: hexon of the Ad5 vector Ad5.5 (on virions) (human adenovirus 5) (UniProt P04133); experiment: as above
[9] = molecular target: hexon of the Ad5 vector Ad5.6 (on virions) (human adenovirus 5) (UniProt P04133); experiment: as above
[10] = molecular target: hexon of wild-type human adenovirus type 1 (on virions) (human adenovirus 1); experiment: as above

Row | Substance | Kd [1] | Kd [2] | koff [2] | kon [2] | Kd [3] | koff [3] | kon [3] | Kd [4] | koff [4] | kon [4] | Kd [5] | koff [5] | kon [5] | Kd [6] | koff [6] | kon [6] | Kd [7] | koff [7] | kon [7] | Kd [8] | also measured
1 | bovine coagulation factor X (from UniProt P00743 41-492) (natural protein) | 0.22 µM | 0.22 µM | 0.0512 s⁻¹ | 236000 M⁻¹ s⁻¹ | 1.1 µM | 0.085 s⁻¹ | 77400 M⁻¹ s⁻¹ | 0.028 µM | 0.00342 s⁻¹ | 121000 M⁻¹ s⁻¹ | 0.097 µM | 0.0132 s⁻¹ | 135000 M⁻¹ s⁻¹ | 0.276 µM | 0.151 s⁻¹ | 549000 M⁻¹ s⁻¹ | 0.54 µM | 0.147 s⁻¹ | 274000 M⁻¹ s⁻¹ | 0.438 µM | koff [8]: 0.169 s⁻¹; kon [8]: 387000 M⁻¹ s⁻¹; Kd [9]: 1.62 µM; koff [9]: 0.167 s⁻¹; kon [9]: 104000 M⁻¹ s⁻¹; Kd [10]: 0.16 µM; koff [10]: 0.0381 s⁻¹; kon [10]: 232000 M⁻¹ s⁻¹
2 | mouse prothrombin (coagulation factor II) (from UniProt P19221 44-618) (natural protein) | 0.016 µM | 0.016 µM | 0.00118 s⁻¹ | 71600 M⁻¹ s⁻¹ | 1.3 µM | 0.0483 s⁻¹ | 36800 M⁻¹ s⁻¹ | 0.01 µM | 0.00031 s⁻¹ | 29800 M⁻¹ s⁻¹ | 0.0086 µM | 0.000535 s⁻¹ | 62200 M⁻¹ s⁻¹ | 0.356 µM | 0.06 s⁻¹ | 168000 M⁻¹ s⁻¹ | 36 µM | 0.281 s⁻¹ | 7770 M⁻¹ s⁻¹ | 0.216 µM | koff [8]: 0.0676 s⁻¹; kon [8]: 314000 M⁻¹ s⁻¹; Kd [9]: 0.42 µM; koff [9]: 0.026 s⁻¹; kon [9]: 62400 M⁻¹ s⁻¹; Kd [10]: 0.014 µM; koff [10]: 0.000687 s⁻¹; kon [10]: 49800 M⁻¹ s⁻¹
3 | mouse coagulation factor X (from UniProt O88947 41-481) (natural protein) | 0.00082 µM | 0.00082 µM | 0.000372 s⁻¹ | 454000 M⁻¹ s⁻¹ | 0.005 µM | 0.00084 s⁻¹ | 169000 M⁻¹ s⁻¹ | 0.00065 µM | 9.23e-05 s⁻¹ | 143000 M⁻¹ s⁻¹ | 0.00031 µM | 3.78e-05 s⁻¹ | 122000 M⁻¹ s⁻¹ | 0.00058 µM | 0.00014 s⁻¹ | 240000 M⁻¹ s⁻¹ | 0.0019 µM | 0.000479 s⁻¹ | 248000 M⁻¹ s⁻¹ | 0.0025 µM | koff [8]: 0.00104 s⁻¹; kon [8]: 416000 M⁻¹ s⁻¹; Kd [9]: 0.00037 µM; koff [9]: 0.000115 s⁻¹; kon [9]: 310000 M⁻¹ s⁻¹; Kd [10]: 0.00031 µM; koff [10]: 7.73e-05 s⁻¹; kon [10]: 253000 M⁻¹ s⁻¹
4 | human coagulation factor X (from UniProt P00742 41-488) (natural protein) | 0.3 µM | 0.3 µM | 0.077 s⁻¹ | 253000 M⁻¹ s⁻¹ | 0.65 µM | 0.0631 s⁻¹ | 97200 M⁻¹ s⁻¹ | 0.058 µM | 0.00316 s⁻¹ | 54300 M⁻¹ s⁻¹ | 0.043 µM | 0.00914 s⁻¹ | 214000 M⁻¹ s⁻¹ | 0.0011 µM | 0.000122 s⁻¹ | 112000 M⁻¹ s⁻¹ | 0.01 µM | 0.000338 s⁻¹ | 33900 M⁻¹ s⁻¹ | 0.0052 µM | koff [8]: 0.000661 s⁻¹; kon [8]: 126000 M⁻¹ s⁻¹; Kd [9]: 0.00094 µM; koff [9]: 0.000127 s⁻¹; kon [9]: 135000 M⁻¹ s⁻¹; Kd [10]: 0.22 µM; koff [10]: 0.0501 s⁻¹; kon [10]: 232000 M⁻¹ s⁻¹
